Measurements published in US20080119640A1.
“And” between values parts separate entries of the source, which are not always exact repeats. Equal values may be shown once.

Biological target: T1, IFNα receptor 2 (IFNAR2) on THP-1 cells (human) (UniProt P48551)
T1 sequence (looked up): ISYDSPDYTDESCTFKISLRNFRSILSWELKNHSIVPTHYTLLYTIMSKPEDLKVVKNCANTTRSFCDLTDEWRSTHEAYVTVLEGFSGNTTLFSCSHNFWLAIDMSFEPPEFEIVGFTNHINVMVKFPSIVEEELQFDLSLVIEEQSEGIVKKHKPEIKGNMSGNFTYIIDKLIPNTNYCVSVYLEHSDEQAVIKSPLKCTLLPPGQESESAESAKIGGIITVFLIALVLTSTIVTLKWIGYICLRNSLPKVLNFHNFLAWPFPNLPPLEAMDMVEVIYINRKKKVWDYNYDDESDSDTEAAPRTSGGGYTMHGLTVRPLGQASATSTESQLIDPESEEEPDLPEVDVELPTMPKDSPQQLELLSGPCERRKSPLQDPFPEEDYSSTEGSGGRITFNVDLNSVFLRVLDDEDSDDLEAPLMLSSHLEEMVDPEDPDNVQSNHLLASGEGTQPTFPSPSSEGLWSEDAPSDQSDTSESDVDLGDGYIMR
Assay: cell-based or functional assay

Substance: 6His E41pAF (from UniProt P01563 24-188) (ligand)
- pSTAT1 % (PEGASYS fixed as 100%): 3.97%
- pSTAT1 EC50 (pM): 19 pM

Substance: 6His E41pAF-30K PEG (from UniProt P01563 24-188) (ligand)
- pSTAT1 % (PEGASYS fixed as 100%): 25.2%
- pSTAT1 EC50 (pM): 120 pM

Substance: 6His E107pAF (from UniProt P01563 24-188) (ligand)
- pSTAT1 % (PEGASYS fixed as 100%): 6.43%
- pSTAT1 EC50 (pM): 30.8 pM

Substance: 6His E107pAF-30K PEG (from UniProt P01563 24-188) (ligand)
- pSTAT1 % (PEGASYS fixed as 100%): 22.3% and 7.27%

Substance: 6His E113pAF-30K PEG (from UniProt P01563 24-188) (ligand)
- pSTAT1 % (PEGASYS fixed as 100%): 54.7%
- pSTAT1 EC50 (pM): 262 pM

Substance: 6His F27pAF-30K PEG (from UniProt P01563 24-188) (ligand)
- pSTAT1 % (PEGASYS fixed as 100%): 66%
- pSTAT1 EC50 (pM): 316 pM

Substance: 6His F38L (from UniProt P01563 24-188) (ligand)
- pSTAT1 % (PEGASYS fixed as 100%): 2.72%
- pSTAT1 EC50 (pM): 13 pM

Substance: 6His F38S (from UniProt P01563 24-188) (ligand)
- pSTAT1 % (PEGASYS fixed as 100%): 3.76%

Substance: 6His G37pAF (from UniProt P01563 24-188) (ligand)
- pSTAT1 % (PEGASYS fixed as 100%): 4.55%
- pSTAT1 EC50 (pM): 21.8 pM

Substance: 6His G37pAF-30K PEG (from UniProt P01563 24-188) (ligand)
- pSTAT1 % (PEGASYS fixed as 100%): 40.3%
- pSTAT1 EC50 (pM): 193 pM

Substance: 6His H34pAF (from UniProt P01563 24-188) (ligand)
- pSTAT1 % (PEGASYS fixed as 100%): 25%

Substance: 6His H34pAF-30K PEG (from UniProt P01563 24-188) (ligand)
- pSTAT1 % (PEGASYS fixed as 100%): 33.6%
- pSTAT1 EC50 (pM): 161 pM

Substance: 6His K31pAF (from UniProt P01563 24-188) (ligand)
- pSTAT1 % (PEGASYS fixed as 100%): 10.2%

Substance: 6His K31pAF-30K PEG (from UniProt P01563 24-188) (ligand)
- pSTAT1 % (PEGASYS fixed as 100%): 62.5%

Substance: 6His K134pAF-30K PEG (from UniProt P01563 24-188) (ligand)
- pSTAT1 % (PEGASYS fixed as 100%): 22.5%

Substance: 6His L110pAF-30K PEG (from UniProt P01563 24-188) (ligand)
- pSTAT1 % (PEGASYS fixed as 100%): 27.8%
- pSTAT1 EC50 (pM): 133 pM

Substance: 6His L117pAF-30K PEG (from UniProt P01563 24-188) (ligand)
- pSTAT1 % (PEGASYS fixed as 100%): 50.6%
- pSTAT1 EC50 (pM): 242 pM

Substance: 6His N45pAF-30K PEG (from UniProt P01563 24-188) (ligand)
- pSTAT1 % (PEGASYS fixed as 100%): 18.2%

Substance: 6His N65pAF-30K PEG (from UniProt P01563 24-188) (ligand)
- pSTAT1 % (PEGASYS fixed as 100%): > 532%
- pSTAT1 EC50 (pM): > 2860 pM

Substance: 6His P39pAF-30K PEG (from UniProt P01563 24-188) (ligand)
- pSTAT1 % (PEGASYS fixed as 100%): 52.9%
- pSTAT1 EC50 (pM): 253 pM

Substance: 6His R12pAF-30K PEG (from UniProt P01563 24-188) (ligand)
- pSTAT1 % (PEGASYS fixed as 100%): 138%
- pSTAT1 EC50 (pM): 660 pM

Substance: 6His R125pAF-30K PEG (from UniProt P01563 24-188) (ligand)
- pSTAT1 % (PEGASYS fixed as 100%): 47%
- pSTAT1 EC50 (pM): 225 pM

Substance: 6His T106pAF-30K PEG (from UniProt P01563 24-188) (ligand)
- pSTAT1 % (PEGASYS fixed as 100%): 28.4%

Substance: 6HisC1G/C98 IFNα-2a + limitin loop (from UniProt P01563 25-188) (ligand)
- pSTAT1 % (PEGASYS fixed as 100%): 6.27% and 7.27%
- pSTAT1 EC50 (pM): 30 pM and 34.8 pM

Substance: PEGASYS® (Peginterferon alfa-2a) (from UniProt P01563 24-188) (ligand)
- pSTAT1 % (PEGASYS fixed as 100%): 100%
- pSTAT1 EC50 (pM): 479 pM
